One data set concerns EUGT11. Briefly: Inhibition studies of RebD production. Type of data set: biochemical, Oryza sativa. The following applies: Steviva 500 μg/ml, UDP 500 μM; around 30 μM without any addition. The procedure: Experiments were conducted to determine if factors such as sucrose, fructose, UDP, product (RebD) and impurities in the less pure Stevia extracts raw materials inhibited the extent of the conversion of steviol glycoside substrates to RebD. In a standard reaction mixture, excess of the potential inhibitors (sucrose, fructose, UDP, RebD, or a commercial blend of steviol glycosides (Steviva, Steviva Brands, Inc., Portland, OR)) were added. Following incubation, RebD-production was quantified. […] The RebD that was produced was less than 7 μM. This inhibition can be alleviated in the in vivo or in vitro reactions for RebD production, by including an UDP recycling system to UDP-glucose, either by yeast or by an added SUS (sucrose synthase enzyme) in conjunction with sucrose.

Data set [1] can be described thus: Codon optimized UGT cell lysate assay, 13-SMG as substrate. Type of data set: biochemical. The following applies: 0.25 mM 13-SMG, 24 hours, 30° C. The procedure:
(§1) The wild-type, DNA 2.0, and GeneArt sequences were assayed for in vitro activity to compare reactivity on substrates in the steviol glycosides pathway. UGTs were inserted in high copy (2p) vectors and expressed from a strong constitutive promoter (GPD1) (vectors P423-GPD, P424-GPD, P425-GPD, and P426-GPD). The plasmids were transformed individually into the universal Watchmaker strain, EFSC301 (described in Example 3 of WO2011/153378) and assays were carried out using cell lysates prepared from equal amount of cells (8 OD units). For the enzymatic reactions, 6 μL of each cell lysate were incubated in a 30 μL reaction with 0.25 mM steviol (final concentration) to test UGT74G1 and UGT85C2 clones, and with 0.25 mM 13-SMG (13SMG) (final concentration) to test 76G1 and 91D2e UGTs. Assays were carried out for 24 hours at 30° C. Prior to LC-MS analysis, one volume of 100% DMSO was added to each reaction, samples were centrifuged at 16000 g, and the supernatants analysed.

Data set [2] in a line: In vitro transcribed and translated UGTs incubated with steviol, LC-MS. Type of data set: biochemical. How it is done:
(§2) EUGT11 was produced by in vitro transcription and translation, and incubated with various substrates in the RebD pathway. Similar experiments were carried out using in vitro transcribed and translated UGT91D2e. […] Compounds 1-3 were identified solely by mass and expected retention time. The numbers shown in FIG. 3 are the average peak height of the indicated steviol glycoside obtained from a LC-MS chromatogram, and, although not quantitative, can be used to compare the activity of the two enzymes. […] Both enzymes were able to convert steviol 19-O-monoglucoside (SMG) to compound 1, with EUGT11 being about ten times more efficient than UGT91D2e at converting 19-SMG to compound 1.

Data set [3] in a line: Screening by LC-MS of E. coli lysates, rebaudioside A as substrate. It counts as biochemical. The following applies: RebA substrate. How it is done:
(§3) To analyze the approximately 1600 mutant clones of UGT91D2e, the E. coli transformants were grown overnight at 30° C. in 1 ml of NZCYM containing ampicillin (100 mg/1) and chloramphenicol (33 mg/1), in 96-well format. The next day, 150 μl of each culture was inoculated into 3 ml NZCYM containing ampicillin (100 mg/1), chloramphenicol (33 mg/1), arabinose 3 mM, IPTG 0.1 mM and ethanol 2% v/v, in 24-well format, and incubated at 20° C. and 200 rpm for ˜20 h. The following day, cells were spun down and pellets were resuspended in 100 μl of lysis buffer containing 10 mM Tris-HCl pH 8, 5 mM MgCl2, 1 mM CaCl2) and complete mini protease inhibitor EDTA-free (3 tablets/100 ml) (Hoffmann-La Roche, Basel, Switzerland) and frozen −80° C. for at least 15 minutes to promote cell lysis. […] In each case, the resulting compounds, stevioside or rebaudioside D (rebD), were measured by LC-MS. Results were analyzed in comparison with the stevioside or rebD produced by the lysates expressing the corresponding controls (91D2e, 91D2e-b, EUGT11 and the empty plasmid). […]
(§4) Half of the 1600 clones and the corresponding controls were assayed for their capacity to glycosylate rubusoside and rebaudiosideA. Stevioside and RebD were quantified by LC-MS. […]

Data set [4] can be described thus: In vitro transcribed and translated UGTs incubated with RebA and UDP-glucose, LC-MS. It counts as biochemical. The note with it: LC-MS chromatograms, FIG. 4. The procedure:
In vitro transcription and translation of these genes was performed, and the resulting UGTs incubated with RebA and UDP-glucose. Following incubation, the reactions were analyzed by LC-MS. […] See LC-MS chromatograms in FIG. 4. As shown in the left panel of FIG. 4, UGT91D2e produced a trace amount of RebD when RebA was used as the feedstock.
as §2
Both enzymes were able to convert RebA to RebD. However, EUGT11 was approximately 30 times better at converting RebA to RebD. Overall, it appears that EUGT11 produces more product than UGT91D2e in all reactions (with similar time, concentrations, temperature, and purity of enzyme) except the conversion of rubusoside to stevioside.

The nature of data set [5]: Screening by LC-MS of E. coli lysates, rubusoside as substrate. Type of data set: biochemical. The procedure:
as §3, §4

A short description of data set [6]: In vitro transcribed and translated UGTs incubated with rubusoside, LC-MS. Type of data set: biochemical. How it is done:
as §2
The left panel of FIG. 5 contains LC-MS chromatograms of the conversion of rubusoside to stevioside. The right panel of FIG. 5 contains chromatograms of the conversion of rubusoside to stevioside, to compound 2, and to compound 3 (RebE). Conversion of rubusoside to compound 3 requires two consecutive 1, 2-O-glycosylations at the 19- and 13-positions of steviol.

The test system of data set [7] is S. cerevisiae strain BY4741. Briefly: Steviol-feeding experiment of S. cerevisiae strain BY4741. Type of data set: cell-based. The following applies: co-expressed with wild type UGT74G1, steviol feeding. The procedure: Further experiments were conducted to determine if the codon-optimized UGT85C2 could reduce 19-SMG accumulation and increase rubusoside and higher glycosylated steviol glycosides production. The production of 19-SMG and rubusoside were analysed in a steviol-feeding experiment of S. cerevisiae strain BY4741 expressing the wild type UGT74G1 as well as the codon-optimized UGT85C2 from high copy (2p) vectors under strong constitutive promoter (GPD1) (vectors P426-GPD and P423-GPD, respectively). Whole culture samples (without cell removal) were taken and boiled in an equal volume of DMSO for total glycosides levels. Intracellular concentrations reported were obtained by pelleting cells, and resuspending in 50% DMSO to the volume of the original culture sample taken, followed by boiling. The “total” glycosides level and the normalized intracellular level then were measured using LC-MS. Using wild type UGT74G1 and wild type UGT85C2, approximately 13.5 μM rubusoside was produced in total with a maximum normalized intracellular concentration of about 7 μM. In contrast, when wild type UGT74G1 and codon-optimized UGT85C2 were used, a maximum of 26 μM rubusoside was produced, or approximately double of what was produced using the wild type UGT85C2. Additionally, the maximum normalized intracellular concentration of rubusoside was 13 μM, again an approximate doubling of what was produced using wild type UGT85C2. […] Consequently, about 10 μM less total 19-SMG was measured for the codon-optimized UGT85C2.

Data set [8] is described as follows: Codon optimized UGT cell lysate assay, steviol as substrate. Type of data set: biochemical. The following applies: 0.25 mM steviol, 24 hours, 30° C. How it is done:
as §1

A short description of data set [9]: Denaturation temperature by differential scanning calorimetry (DSC). Type of data set: physicochemical. The following applies: 6HIS-purified enzymes, 91D2e-b GST-purified. The procedure:
To assess the thermal stability of EUGT11 and to compare it with the other UGTs in the steviol glycosylation pathway, denaturation temperatures of the proteins were determined using differential scanning calorimetry (DSC). Use of DSC thermograms to estimate denaturation temperatures, TD, is described, for example, by E. Freire in Methods in Molecular Biology 1995, Vol. 40 191-218. DSC was performed (using 6HIS-purified EUGT11, yielding an apparent TD of 39° C.; while when GST-purified 91D2e-b was used, the measured TD was 79° C. For reference, the measured TD when using 6HIS-purified UGT74G1, UGT76G1 and UGT85C2 was 86° C. in all cases. One of skill in the art will recognize that enzyme immobilization or addition of thermal protectants can be added to the reactions to improve stability of the protein. Non-limiting examples of thermal protectants include trehalose, glycerol, ammonium sulphate, betaine, trimethylamine oxide, and proteins.
(Differential scanning calorimetry records heat flow against a reference as temperature is scanned.)

In the case of `O=c1ccn([C@@H]2O[C@H](COP(=O)(O)OP(=O)(O)O)[C@@H](O)[C@H]2O)c(=O)[nH]1` [UDP], the “RebD production in presence of potential inhibitor” value in the data set with EUGT11 was “less than 7 μM”.

B1: UGT91D2e: UGT91D2e polypeptide from Stevia rebaudiana, SEQ ID NO:5 (protein, listed as Stevia rebaudiana)
chain: MATSDSIVDDRKQLHVATFPWLAFGHILPYLQLSKLIAEKGHKVSFLSTTRNIQRLSSHISPLINVVQLTLPRVQELPEDAEATTDVHPEDIPYLKKASDGLQPEVTRFLEQHSPDWIIYDYTHYWLPSIAASLGISRAHFSVTTPWAIAYMGPSADAMINGSDGRTTVEDLTTPPKWFPFPTKVCWRKHDLARLVPYKAPGISDGYRMGLVLKGSDCLLSKCYHEFGTQWLPLLETLHQVPVVPVGLLPPEIPGDEKDETWVSIKKWLDGKQKGSVVYVALGSEVLVSQTEVVELALGLELSGLPFVWAYRKPKGPAKSDSVELPDGFVERTRDRGLVWTSWAPQLRILSHESVCGFLTHCGSGSIVEGLMFGHPLIMLPIFGDQPLNARLLEDKQVGIEIPRNEEDGCLTKESVARSLRSVVVEKEGEIYKANARELSKIYNDTKVEKEYVSQFVDYLEKNARAVAIDHES
Turning to B1, in data set [1], the “activity of GeneArt lysate as a percentage of the wild-type enzyme” value was determined as 130%. Also, in data set [2], the “use of steviol as a substrate” value is recorded as “not able to use steviol as a substrate”. For the same molecule, the “RebD formed by lysates” value in [3] is around 1 µM. For the same molecule, the “amount of RebD produced when RebA was used as the feedstock” value in data set [4] is “trace amount”. Besides, the “stevioside formed by lysates” value in data set [5] is reported as “approximately 0.5 μM”. Besides, the “amount of compound 3 (RebE) produced from rubusoside” value in data set [6] was “trace amount”.

B2: UGT85C2: S. rebaudiana UGT, SEQ ID NO:3 (protein, listed as Stevia rebaudiana)
chain: MDAMATTEKKPHVIFIPFPAQSHIKAMLKLAQLLHHKGLQITFVNTDFIHNQFLESSGPHCLDGAPGFRFETIPDGVSHSPEASIPIRESLLRSIETNFLDRFIDLVTKLPDPPTCIISDGFLSVFTIDAAKKLGIPVMMYWTLAACGFMGFYHIHSLIEKGFAPLKDASYLTNGYLDTVIDWVPGMEGIRLKDFPLDWSTDLNDKVLMFTTEAPQRSHKVSHHIFHTFDELEPSIIKTLSLRYNHIYTIGPLQLLLDQIPEEKKQTGITSLHGYSLVKEEPECFQWLQSKEPNSVVYVNFGSTTVMSLEDMTEFGWGLANSNHYFLWIIRSNLVIGENAVLPPELEEHIKKRGFIASWCSQEKVLKHPSVGGFLTHCGWGSTIESLSAGVPMICWPYSWDQLTNCRYICKEWEVGLEMGTKVKRDEVKRLVQELMGEGGHKMRNKAKDWKEKARIAIAPNGSSSLNIDKMVKEITVLARN
On to B2, for which, in data set [7], the “maximum intracellular concentration of 19-SMG” value amounted to 35 µM, the “maximum normalized intracellular concentration of rubusoside” value is “about 7 μM” and the “rubusoside produced in total” value was “approximately 13.5 μM”. For the same molecule, the “activity of GeneArt lysate as a percentage of the wild-type enzyme” value in [8] is on record as 340%. The “denaturation temperature TD” value in data set [9] came to 86 °C.

B3: UGT76G1: S. rebaudiana UGT, SEQ ID NO:7 (protein, listed as Stevia rebaudiana)
chain: MENKTETTVRRRRRIILFPVPFQGHINPILQLANVLYSKGFSITIFHTNFNKPKTSNYPHFTFRFILDNDPQDERISNLPTHGPLAGMRIPIINEHGADELRRELELLMLASEEDEEVSCLITDALWYFAQSVADSLNLRRLVLMTSSLFNFHAHVSLPQFDELGYLDPDDKTRLEEQASGFPMLKVKDIKSAYSNWQILKEILGKMIKQTKASSGVIWNSFKELEESELETVIREIPAPSFLIPLPKHLTASSSSLLDHDRTVFQWLDQQPPSSVLYVSFGSTSEVDEKDFLEIARGLVDSKQSFLWVVRPGFVKGSTWVEPLPDGFLGERGRIVKWVPQQEVLAHGAIGAFWTHSGWNSTLESVCEGVPMIFSDFGLDQPLNARYMSDVLKVGVYLENGWERGEIANAIRRVMVDEEGEYIRQNARVLKQKADVSLMKGGSSYESLESLVSYISSL
Take B3: the “activity of GeneArt lysate as a percentage of the wild-type enzyme” value in data set [1] is 170%. Further, the “denaturation temperature TD” value in [9] worked out at 86 °C.
